Substitutions are numbered along the chain they refer to.
B1: mim-1 C-Myb site control (dsDNA)
DNA 1: GCTCTAAAAAACCGTTATAATGTACAGATATCTT
DNA 2: AAGATATCTGTACATTATAACGGTTTTTTAGAG
B2: Zeb1 c.58+181G (wild type) probe (dsDNA)
DNA 1: TGCTGGACTGGACCGTTATGTCTTACCTGC
DNA 2: GCAGGTAAGACATAACGGTCCAGTCCAGCA
B3: Zeb1 c.58+181A (Twirler) probe (dsDNA)
DNA 1: B2 DNA 1 with G15A
DNA 2: B2 DNA 2 with C16T

What was measured:
[1] = target: T1, C-Myb (mouse, UniProt P06876 1-636); assay: competition; unlabeled, 25- or 50-fold molar excess vs labeled N1; complete inhibition; 20 ul reactions with EMSA Accessory Kit (Novagen), 6% DNA retardation gel; buffer composition, salt, pH and temperature not stated; conditions: protein: recombinant; tags: pET-41a(+) vector tags (Ni-NTA purified); 5' overhang 1 nt on strand 1 as printed (S6 lacks the 3' C)
T1 sequence (P06876 whole entry): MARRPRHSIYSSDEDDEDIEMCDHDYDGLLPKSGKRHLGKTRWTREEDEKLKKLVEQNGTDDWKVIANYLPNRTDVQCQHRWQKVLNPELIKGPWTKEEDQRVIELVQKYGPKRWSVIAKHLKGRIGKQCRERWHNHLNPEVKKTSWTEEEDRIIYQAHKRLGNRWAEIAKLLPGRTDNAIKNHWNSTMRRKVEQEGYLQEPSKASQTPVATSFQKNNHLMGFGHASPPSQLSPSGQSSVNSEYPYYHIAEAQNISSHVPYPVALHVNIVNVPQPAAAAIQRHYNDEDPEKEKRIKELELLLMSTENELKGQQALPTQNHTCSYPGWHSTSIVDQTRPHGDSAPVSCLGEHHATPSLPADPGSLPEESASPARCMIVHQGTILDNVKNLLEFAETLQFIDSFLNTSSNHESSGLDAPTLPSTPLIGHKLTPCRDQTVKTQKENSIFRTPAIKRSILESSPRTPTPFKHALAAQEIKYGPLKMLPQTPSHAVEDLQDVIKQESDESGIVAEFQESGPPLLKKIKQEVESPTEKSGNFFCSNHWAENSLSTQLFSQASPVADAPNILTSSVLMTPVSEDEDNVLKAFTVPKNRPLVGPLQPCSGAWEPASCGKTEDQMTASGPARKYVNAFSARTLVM

[2] = target: T1, C-Myb; assay: EMSA; 20 ul reactions with EMSA Accessory Kit (Novagen), 6% DNA retardation gel; buffer composition, salt, pH and temperature not stated; conditions: protein: recombinant; tags: pET-41a(+) vector tags (Ni-NTA purified); blunt

Row | Binder | binding result [1] | binding result [2]
1 | B1 | binds | 
2 | B2 |  | binds
3 | B3 |  | no binding

From publication PMC3183090, “A Noncoding Point Mutation of Zeb1 Causes Multiple Developmental Malformations and Obesity in Twirler Mice”
